Results reported in publication PMC7144946.

T1: Yap1 bZIP (Aspergillus fumigatus, UniProt Q4WMH0 135-234)
T1 sequence: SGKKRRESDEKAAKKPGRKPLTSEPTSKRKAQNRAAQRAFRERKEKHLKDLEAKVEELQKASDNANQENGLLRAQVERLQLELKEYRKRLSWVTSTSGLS

B1: cccA-369 (dsDNA)
DNA 1: AAATCCACCAATCAACGCCTCCGTGATTGTCAGCAAT
DNA 2: ATTGCTGACAATCACGGAGGCGTTGATTGGTGGATTT
B2: cyp51A-293 (dsDNA)
DNA 1: GCTGAGCCGAATGAAAGTTGCCTAATTACTAAGGTGT
DNA 2: ACACCTTAGTAATTAGGCAACTTTCATTCGGCTCAGC

What was measured:
Assay in all cases: SPR
[1] = target: A. fumigatus CCAAT-binding complex (CBC) consisting of HapB(230–299), HapC(40–137) and HapE(47–164) (Aspergillus fumigatus)
HapX dCBC-BD = HapX dCBC-BD (Aspergillus fumigatus, UniProt Q4WER3 59-158)
Yap1 bZIP = target: T1, Yap1 bZIP

| Molecule | apparent KD with cccA-369 promoter DNA (HapX on preformed CBC:DNA) [1] | apparent KD with cox6 promoter DNA (HapX on preformed CBC:DNA) [1] | apparent KD with hemH promoter DNA (HapX on preformed CBC:DNA) [1] | binding signal (HapX dCBC-BD) | Kd (Yap1 bZIP) |
| --- | --- | --- | --- | --- | --- |
| A. fumigatus HapX(24–158) (from UniProt Q4WER3 24-158) (domain or fragment) | 0.4 nM | 3600 nM | 121 nM | – | – |
| B1 | – | – | – | 3 fold increase vs HapX | 50 nM |
| B2 | – | – | – | – | 13 nM |
